From publication PMC3708822 come the findings set out here.

Test [1] concerns the target GST-INI1 (UniProt Q12824). Briefly: pull-down; 5 ug GST-INI1 on glutathione sepharose 4B beads incubated 1 hour at 4°C with clarified 293 T whole cell lysates normalized for YFP-IN levels; Western blot, densitometry, binding relative to YFP-WT. (Immunoblotting shows a protein as a band on a membrane.)
Test [2] deals with GST-SAP18 (UniProt O00422). The test is described as follows: GST pull-down, Western blot quantitation. Particulars: 5μg of GST-tagged proteins were used for each pull-down reaction; parent: est. 1.0; read off a plot.
GST-SAP18, sequence (O00422 whole entry): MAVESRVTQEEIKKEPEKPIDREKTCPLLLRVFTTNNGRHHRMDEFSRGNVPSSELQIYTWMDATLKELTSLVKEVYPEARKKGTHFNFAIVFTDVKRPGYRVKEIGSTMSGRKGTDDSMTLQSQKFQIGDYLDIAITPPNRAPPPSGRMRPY
A further test concerns the target GST-RT (HIV-1 (NL4-3)). Briefly: pull-down; 5 ug GST-tagged proteins on glutathione sepharose 4B beads incubated 1 hour at 4°C with normalized clarified bacterial lysates of 6His-IN in 20 mM HEPES-KOH pH 8.0, 5 mM DTT, 0.1% IGEPAL; washes with 200 mM NaCl, 0.5% IGEPAL; Western blot, densitometry relative to WT.
Test [3] deals with GST-INI1 (UniProt Q12824). The test is described as follows: pull-down; in vitro binding of His6-IN with GST-INI1; data not shown.
GST-INI1, sequence (Q12824 whole entry): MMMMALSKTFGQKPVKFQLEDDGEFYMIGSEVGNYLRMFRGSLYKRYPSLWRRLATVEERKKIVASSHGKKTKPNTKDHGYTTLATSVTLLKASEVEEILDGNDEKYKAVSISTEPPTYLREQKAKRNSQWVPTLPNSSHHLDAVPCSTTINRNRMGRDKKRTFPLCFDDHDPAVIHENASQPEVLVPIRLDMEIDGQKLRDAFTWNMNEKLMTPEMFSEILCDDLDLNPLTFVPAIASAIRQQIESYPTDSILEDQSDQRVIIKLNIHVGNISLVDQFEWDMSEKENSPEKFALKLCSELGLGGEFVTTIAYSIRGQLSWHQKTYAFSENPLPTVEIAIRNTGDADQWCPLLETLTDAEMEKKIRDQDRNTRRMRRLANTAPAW
Test [4] addresses GST-SAP18 (UniProt O00422). Briefly: pull-down; 5 ug GST-tagged proteins on glutathione sepharose 4B beads incubated 1 hour at 4°C with normalized clarified bacterial lysates of 6His-IN in 20 mM HEPES-KOH pH 8.0, 5 mM DTT, 0.1% IGEPAL; washes with 200 mM NaCl, 0.5% IGEPAL; Western blot, densitometry relative to WT.

Turning to YFP-IN S147G (natural protein), the % binding to INI1 relative to wild type with GST-INI1 [1] worked out at 77%. For the substance YFP-WT IN (natural protein), the % binding to INI1 relative to wild type with GST-INI1 [1] was determined as 100%. Regarding His6-tagged WT IN S147G, the ratio to parent with GST-SAP18 [2] turned out to be 1. In the test with GST-RT (HIV-1 (NL4-3)), His6-tagged IN D202G (natural protein) displayed a % RT binding compared to WT of 80%. In the case of His6-tagged WT IN K111E, the ratio to parent with GST-SAP18 [2] is 1.3.

Consider His6-tagged IN K111E (natural protein), for which the % binding compared to His6-WT in the test with GST-INI1 [3] came out at 60%. Take YFP-IN D202G (natural protein): the % binding to INI1 relative to wild type with GST-INI1 [1] was 32%. The substance YFP-IN K71R (natural protein) showed a % binding to INI1 relative to wild type in the test with GST-INI1 [1] of 46%. Take His6-tagged WT IN K71R: the ratio to parent with GST-SAP18 [2] turned out to be 1.1. Consider YFP-IN Q137R (natural protein), for which, in the test with GST-INI1 [1], the % binding to INI1 relative to wild type is 10%. For His6-tagged WT IN D202G, in the test with GST-SAP18 [2], the ratio to parent was found to be 0.84. With YFP-IN H12Y (natural protein), the % binding to INI1 relative to wild type in the test with GST-INI1 [1] turned out to be 20.6%.

The substance His6-tagged IN Q137R (natural protein) displayed a fold decrease in binding relative to WT with GST-SAP18 [4] of 4 fold. This substance also displayed a % RT binding compared to WT in the test with GST-RT (HIV-1 (NL4-3)) of 45%.
